Source: publication PMC5673489 (Cell, 2017)

Key:
[1] = target: FIT-1 bispecific antibody (Fabs-in-tandem-Ig, ZKA190 outer Fab, ZKA185 inner Fab, IgG1 LALA) (human); assay: SPR
[2] = target: T1, recombinant DIII of ZIKV E protein (Brazil 2015 strain SPH2015) (Zika virus, Brazil 2015 strain SPH2015, strain); assay: SPR
T1 chain: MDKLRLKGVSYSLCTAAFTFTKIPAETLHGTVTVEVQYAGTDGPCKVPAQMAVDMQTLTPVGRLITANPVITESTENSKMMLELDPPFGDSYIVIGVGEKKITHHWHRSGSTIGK

[3] = target: T1, recombinant DIII of ZIKV E protein …; assay: NMR titration

With “recombinant E protein from ZIKV (natural protein)” the Kd [1] was under 1 pM.

B1: ZKA190 IgG (antibody, V domains shown)
VH: QVQLVESGGGVVQPGRSLRLSCAASGFTFSKYGMHWVRQAPGKGLEWVAVISYEGSNKYYADSVKGRFTISRDNSKNTLYLQMNSLRAEDTAVYYCAKSGTQYYDTTGYEYRGLEYFGYWGQGTLVTVS
VL: EIVLTQSPGTLSLSPGERATLSCRASQSVSSSYLAWYQQKRGQAPRLLIYDASSRATGIPDRFSGSGSGTDFTLTISRLEPEDFAVYYCQQYGRSRWTFGQGTKVEIK
B1: binds [2].

B2: ZKA190 Fab (Fab, V domains shown)
VH: B1 VH
VL: B1 VL
B2: binds [3].
